Key:
laser-induced CNV model = assay: Laser-induced choroidal neovascularization (CNV) model, eye drops; type: in vivo, C57BL/6J mice; settings: eye drops 2 μL, 10 mg/ml of aflibercept, four times a day for 7 d, day 7
Excerpt: 40 female C57BL/6J mice at 6 to 8 weeks were selected, and the anterior segments of both eyes and the fundus were examined to be normal before the experiment. An unilateral eye of each mouse was selected and subjected to laser photocoagulation to establish a CNV model, where a corresponding contralateral eye was not treated. Then treated mice were randomly divided into a PBS group, an aflibercept-OPDMA conjugate group, an OPDMA+aflibercept mixture group, and an aflibercept intravitreal injection group. Immediately after the laser photocoagulation, mice in each group were administered with eye drops at a dose of (2 μL, 10 mg/ml of aflibercept) four times a day consecutively for 7 d. For the injection group, a dose was 10 μg/mouse, and the injection was conducted merely once during the experiment. After laser photocoagulation, on day 7 post-modeling, choroidal flat mounts were prepared from the experimental eyes. The flat mounts were subjected to antibody staining using IB4 and imaged under a fluorescence microscope. Thee neovascularization area was measured using image J software. These indices were used to assess the treatment efficacy of each group.

[1] = Intraocular permeation experiment after eye-dropping administration; type: in vivo; settings: mouse, 4 h, laser confocal imaging of eyeball sections
Description: 6.6 mg of BSA ([…]) was dissolved in 1 mL of PBS at pH 7.4, 66 μg of a fluorescent dye Cy5-NHS was added, and stirring was conducted for 6 h at room temperature. Ultrafiltration-washing was repeated multiple times to produce fluorescently-labeled ^Cy5BSA. The conjugate ^Cy5BSA-OPDMA and other protein conjugates were labeled by the same method.
Upper and lower eyelids of each mouse were gently pulled open with a cotton swab. Solutions of ^Cy5BSA and ^Cy5BSA-OPDMA in PBS each were dropped to a conjunctival sac of a mouse, and a few seconds later, eyelids were slowly closed. At 4 h after the eye-dropping administration, eyeballs were immediately collected, washed three times with PBS, fixed overnight in an FAS eyeball fixative solution, and then transferred to a 30% sucrose solution for dehydration. When sank to a bottom of the solution, eyeballs were carefully taken out, embedded with an optimal cutting temperature (OCT) embedding medium, and sectioned by a freezing microtome to produce 10 μm-thick eyeball sections. The eyeball sections were stained with a 4′,6-diamidino-2-phenylindole (DAPI) dye, and finally the fluorescence distributions of each solution in eyeballs and retinas were observed under a laser scanning confocal microscope. The fluorescence distribution inside a retina of a mouse eyeball was analyzed with Image J.

[2] = Skin permeation experiment; type: in vivo, C57BL/6 mice; settings: mouse dorsal skin, 4 h after administration, laser confocal
Description: C57BL/6 mice each with a body weight of 20 g were selected and randomly divided into four groups. The hair on the back of each mouse was removed with a depilatory cream. After 24 h of raising, a silicone diffusion cell was fixed on the back, and Cy5-labeled ^Cy5BSA and ^Cy5BSA-OPDMA were added at equal amounts. 4 h after the administration, the dorsal skin of each mouse was carefully collected, rinsed 3 times with PBS, and sectioned by a freezing microtome to produce 20 μm-thick skin sections. A skin permeation effect of each solution was observed under a laser scanning confocal microscope.

CT26 tumor spheres = assay: Permeation in multicellular tumor spheres; type: cell-based; settings: BSA 20 μg/mL, 2 h incubation
Description: The permeability of albumin and a conjugate BSA-OPDMA thereof was verified with multicellular tumor spheres. 1.0 mL of DMEM and the prepared CT26 tumor spheres were added to a confocal imaging dish, and then 20 μL of ^Cy5BSA-OPDMA or ^Cy5BSA was added (where a concentration of BSA was 20 μg/mL). After being incubated for 2 h, tumor spheres were subjected to laser scanning confocal microscopy imaging every 20 μm along a Z-axis. […] Moreover, the more the OPDMA bonded, the stronger the promotion on the permeability of BSA. […] OPDMA with a molecular weight of 10 k could more efficiently promote the penetration of ^Cy5BSA than OPDMA with a molecular weight of 5 k. This conclusion was further confirmed by the quantitative fluorescence data in FIG. 13.

Substance: aflibercept-OPDMA: conjugate of aflibercept with tertiary amine oxide polymer OPDMA
- therapeutic effect on CNV (neovascularization area) (laser-induced CNV model): could indeed exert a therapeutic effect after being dropped to eyes
- therapeutic effect on CNV (neovascularization area) (laser-induced CNV model; listed as aflibercept-OPDMA conjugate): prominent therapeutic effect
- intraocular permeation (fluorescence distribution in eyeballs and retinas) [1]: had a similar intraocular permeation ability

Substance: ^Cy5BSA-OPDMA: Cy5-labeled conjugate of BSA with OPDMA; chain number and weight not stated in the text
- skin permeation effect (fluorescence in skin sections) [2]: the fluorescence could penetrate into the deep skin
- permeation in tumor spheres (fluorescence) (CT26 tumor spheres): presented a strong red fluorescence within tumor spheres
- intraocular permeation (fluorescence distribution in eyeballs and retinas) [1]: could penetrate into intraocular cells, especially a retina in a posterior segment of an eye

Substance: ^Cy5BSA: BSA fluorescently labeled with Cy5-NHS [reference compound]
- skin permeation effect (fluorescence in skin sections) [2]: faint red fluorescence was observed merely in a surface layer of the skin
- permeation in tumor spheres (fluorescence) (CT26 tumor spheres): could only reach the edges of tumor spheres
- intraocular permeation (fluorescence distribution in eyeballs and retinas) [1]: only adhered to a surface of an eyeball

Substance: aflibercept: the protein (aflibercept) itself
- skin permeation effect (fluorescence in skin sections) [2]: cannot permeate into the skin

Source: US20250325680A1, “HIGH-PERMEABILITY PROTEIN OR POLYPEPTIDE CONJUGATE AND USE THEREOF” (Hangzhou Tito Biotechnology Partnership Enterprise ( …, priority 2023, published 2025)
